Measurements reported in PMC9322661.

Biological target: Taxol-stabilized microtubules (porcine brain tubulin) (porcine)
Test: TIRF single-molecule motility assay

Taxol-stabilized microtubules (porcine brain tubulin) (porcine), sequence (P02550 whole entry, chain 1 of 2): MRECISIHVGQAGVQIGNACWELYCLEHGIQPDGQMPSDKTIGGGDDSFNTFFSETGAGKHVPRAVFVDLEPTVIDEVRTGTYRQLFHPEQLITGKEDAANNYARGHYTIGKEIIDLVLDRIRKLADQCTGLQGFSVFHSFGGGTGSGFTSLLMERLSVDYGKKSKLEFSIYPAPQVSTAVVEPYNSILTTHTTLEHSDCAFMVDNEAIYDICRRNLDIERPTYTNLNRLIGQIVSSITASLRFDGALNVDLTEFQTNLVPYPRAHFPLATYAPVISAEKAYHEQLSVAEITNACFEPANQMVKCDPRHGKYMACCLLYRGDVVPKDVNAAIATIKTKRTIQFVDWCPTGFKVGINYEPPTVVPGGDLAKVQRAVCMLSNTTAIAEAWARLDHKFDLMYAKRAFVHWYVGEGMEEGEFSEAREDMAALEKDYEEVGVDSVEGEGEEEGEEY
Taxol-stabilized microtubules (porcine brain tubulin) (porcine), sequence (P02554 whole entry, chain 2 of 2, further chain): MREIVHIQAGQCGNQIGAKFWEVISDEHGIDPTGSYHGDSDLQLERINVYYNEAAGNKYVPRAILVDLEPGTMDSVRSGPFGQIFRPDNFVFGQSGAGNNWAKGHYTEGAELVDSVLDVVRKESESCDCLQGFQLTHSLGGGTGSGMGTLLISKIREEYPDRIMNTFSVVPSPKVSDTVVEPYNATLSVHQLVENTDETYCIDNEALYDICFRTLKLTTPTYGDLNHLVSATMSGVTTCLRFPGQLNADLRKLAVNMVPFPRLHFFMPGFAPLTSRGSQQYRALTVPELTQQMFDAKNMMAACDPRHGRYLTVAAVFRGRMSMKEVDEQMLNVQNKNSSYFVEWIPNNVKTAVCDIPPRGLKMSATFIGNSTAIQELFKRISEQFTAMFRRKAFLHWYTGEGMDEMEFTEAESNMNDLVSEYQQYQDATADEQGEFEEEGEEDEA

landing rate (motors/μm/s/μM): 8.3
Substance: full-length KIF5A(∆exon27)::mSca (from UniProt Q12840 1-1032) (natural protein)
